The results in this text go back to publication doi:10.1101/2023.03.13.532361.

The assay has as its target SLA dehydrogenase RlGabD from Rhizobium leguminosarum SRDI565 (Rhizobium leguminosarum SRDI565). The assay can be described thus: SEC-MALS. For orientation: In gel filtration, larger molecules generally elute earlier.

What is called stoichiometry N is a count of units in the complex or per binding partner. Turning to “SLA dehydrogenase RlGabD from Rhizobium leguminosarum SRDI565 (enzyme)”, the stoichiometry N came to 4.
